Results taken from PMC4289141 (Journal of the American Chemical Society, 2013).

Molecular target: the molecule itself
Assay: cross-linking

B1: ^A74/C81/C96RIDC1 (natural protein)
chain: not shown
modifications: heme covalently (c-type) linked to the protein backbone; in the tetramer disulfide bonds between monomers
  stoichiometry N: 4
